The values below come from patent US20230183364A1 (ELICERA THERAPEUTICS, published 2023).

The target of assay [1] is T1, Biotinylated human IL13Rα2 (hIL13Rα2-avi) (human, UniProt Q14627 29-331, biotinylated in vivo on the Avi-tag by co-expressed BirA).
T1 construct: Produced in Sf9 cells; native signal peptide (aa 1-28) exchanged for the gp67 signal peptide; 42.2 kDa; also called human IL13Rα2-avi; Human ILRα2-avi
T1 sequence: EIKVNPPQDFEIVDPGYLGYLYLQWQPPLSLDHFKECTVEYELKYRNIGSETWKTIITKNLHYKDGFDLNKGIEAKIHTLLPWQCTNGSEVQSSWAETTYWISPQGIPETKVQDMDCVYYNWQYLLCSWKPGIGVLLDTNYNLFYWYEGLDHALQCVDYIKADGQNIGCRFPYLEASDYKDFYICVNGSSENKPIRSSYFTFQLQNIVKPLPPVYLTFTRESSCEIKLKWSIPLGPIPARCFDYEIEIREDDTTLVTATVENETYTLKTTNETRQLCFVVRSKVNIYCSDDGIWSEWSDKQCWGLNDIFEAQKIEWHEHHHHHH
Briefly: ELISA on coated human IL13Ra2, scFv in bacterial supernatant, anti-FLAG-HRP. On the procedure: (§1) Human IL13Rα2-avi (see Example A1), and negative control protein streptavidin were coated into a 384-ELISA well plate at 1 μg/ml in PBS at 4° C. overnight.
(§2) Plates were washed twice with MilliQ water and blocked for 2 h in blocking buffer (phosphate-buffered saline (PBS) supplemented with 0.5% bovine serum albumin (BSA)+0.05% TWEEN 20®). Triple-FLAG-tagged scFv 1E10B9 and mAb47, present in bacterial supernatant, were diluted 1:2, 1:20 and 1:200 in blocking buffer and allowed to bind. An assay control scFv (G-strep-1), specific for streptavidin, was also included. Detection of binding was enabled through an HRP-conjugated anti-FLAG M2 antibody (Sigma-Aldrich #A8592) followed by incubation with 1-step Ultra TMB ELISA substrate (ThermoFisher Scientific #34029). The colorimetric signal development was stopped by adding 1 M sulfuric acid and plates were read at 450 nm. All samples were assayed in duplicates.

Assay [2] concerns the target T2, streptavidin (UniProt P22629 37-163, limits assumed).
T2 construct: Negative control antigen; cognate antigen of G-strep-1 scFv; also called negative control protein streptavidin
Briefly: ELISA on coated streptavidin, scFv in bacterial supernatant, anti-FLAG-HRP. On the procedure:
as §1, §2

The target in assay [3] is T3, Human IL13Rα1-Fc (hIL13Rα1-Fc, RnD Systems #146-IR) (human, UniProt P78552 27-342).
T3 construct: Bought; Fc part of the bought chimera not given
T3 sequence (looked up): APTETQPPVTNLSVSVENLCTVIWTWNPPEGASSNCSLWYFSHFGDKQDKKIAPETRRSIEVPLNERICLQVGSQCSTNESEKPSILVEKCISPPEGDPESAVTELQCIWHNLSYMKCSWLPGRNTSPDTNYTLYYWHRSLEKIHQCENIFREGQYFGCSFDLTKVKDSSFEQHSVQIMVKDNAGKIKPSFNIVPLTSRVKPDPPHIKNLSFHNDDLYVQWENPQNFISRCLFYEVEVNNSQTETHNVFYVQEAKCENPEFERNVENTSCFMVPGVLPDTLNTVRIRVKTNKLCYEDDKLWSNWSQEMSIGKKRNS
As to the kind of experiment: ELISA, coated hIL13Ra1-Fc, anti-FLAG-HRP. As for the experimental part: Coating proteins hIL13Rα2-avi (Example A1), hIL13Rα2-Fc (RnD Systems #7147-IR), mIL13Rα2-Fc (RnD Systems #539-IR) and hIL13Rα1-Fc (RnD Systems #146-IR) were diluted to 1 μg/ml in PBS and directly coated into a 384-well ELISA plate. Two negative control proteins, streptavidin and a non-relevant protein, were also coated. Following incubation of plates with coating-proteins overnight at 4° C., plates were washed twice with MilliQ water and blocked for 2 h in blocking buffer (PBS supplemented with 0.5% BSA+0.05% TWEEN 20®). Triple-FLAG-tagged W-ME107 scFv clones present in bacterial supernatant were diluted 1:10 in blocking buffer and allowed to bind. Detection of binding was enabled through an HRP-conjugated anti-FLAG M2 antibody (Sigma-Aldrich #A8592) followed by incubation with 1-step Ultra TMB ELISA substrate (ThermoFisher Scientific #34029). The colorimetric-signal development was stopped by addition of 1 M sulfuric acid and plates were analyzed at […].

The target in assay [4] is T2, streptavidin. Briefly: SPR: scFv captured on anti-FLAG M2, streptavidin injected. As for the experimental part:
An anti-FLAG M2 antibody (Sigma-Aldrich #F1804), functioning as a capture ligand, was immobilized onto all four surfaces of a CM5-S amine sensor chip through ECD/NHS chemistry on a BIACORE® T200 instrument (GE Healthcare) according to manufacturer's recommendations.
The surfaces were regenerated with 10 mM glycin-HCl pH 2.1. All experiments were performed at 25° C. in HBS supplemented with 0.05% TWEEN 20®, pH 7.5.

Assay [5] concerns the target T4, Mouse IL13Rα2 Fc chimera (mIL13Rα2-Fc, RnD Systems #539-IR) (mouse, UniProt O88786 22-334).
T4 construct: range 22-334; Bought; produced in NS0 cells; homodimer through Fc fusion; also called mILRα2-Fc; Mouse ILRα2-Fc; Fc part of the bought chimera not given
T4 sequence (looked up): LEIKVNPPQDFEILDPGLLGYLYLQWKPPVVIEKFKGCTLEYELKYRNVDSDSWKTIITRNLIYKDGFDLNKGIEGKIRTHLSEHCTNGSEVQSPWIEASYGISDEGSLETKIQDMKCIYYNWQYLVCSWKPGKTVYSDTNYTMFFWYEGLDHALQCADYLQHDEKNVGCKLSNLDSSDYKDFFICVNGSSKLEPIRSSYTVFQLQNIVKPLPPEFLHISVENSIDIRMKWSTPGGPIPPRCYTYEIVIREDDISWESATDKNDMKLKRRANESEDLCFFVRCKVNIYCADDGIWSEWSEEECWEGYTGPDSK
As to the kind of experiment: SPR single cycle kinetics, scFv captured. From the text:
(§3) An anti-FLAG M2 antibody (Sigma-Aldrich #F1804), functioning as a capture ligand was immobilized onto all four surfaces of a CM5-S amine sensor chip on a BIACORE® T200 instrument (GE Healthcare) according to manufacturer's recommendations.

Assay [6] has as its target T1, Biotinylated human IL13Rα2 …. Briefly: SPR single cycle kinetics, scFv captured.
Text: as §3

For assay [7], the target named is T5, Human IL13Rα2 Fc chimera (hIL13Rα2-Fc, RnD Systems #7147-IR) (human, UniProt Q14627 22-342).
T5 construct: Bought; produced in CHO cells; homodimer through Fc fusion; also called hILRα2-Fc; Human ILRα2-Fc; not shown: Fc part (and any linker) of the bought chimera
T5 sequence: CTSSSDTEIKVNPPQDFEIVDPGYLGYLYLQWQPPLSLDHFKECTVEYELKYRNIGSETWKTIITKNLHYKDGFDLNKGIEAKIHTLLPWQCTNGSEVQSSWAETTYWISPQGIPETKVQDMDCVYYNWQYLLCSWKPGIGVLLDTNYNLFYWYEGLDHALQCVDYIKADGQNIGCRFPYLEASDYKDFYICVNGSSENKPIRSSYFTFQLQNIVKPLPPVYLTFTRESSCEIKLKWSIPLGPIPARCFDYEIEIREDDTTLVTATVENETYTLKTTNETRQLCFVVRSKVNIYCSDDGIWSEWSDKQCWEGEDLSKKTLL
As to the kind of experiment: SPR single cycle kinetics, scFv captured.
Text: as §3

T2 sequence (P22629 37-163 limits assumed): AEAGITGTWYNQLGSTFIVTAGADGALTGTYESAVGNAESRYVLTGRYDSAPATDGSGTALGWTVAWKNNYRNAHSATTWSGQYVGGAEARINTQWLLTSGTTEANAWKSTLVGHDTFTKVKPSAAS

B1: 1E10B9 scFv (scFv)
scFv: QIQLVQSGPELKKPGETVKIYCKASGYSFRDYSVHWVKQAPGKGLKWMGWINTETGEPTYVDEFKGRFAFFLEASANTVYLQISNLKNEDTATYFCDYRFTYWGQGTLVTVSAGGGGSGGGGSGGGGSEIVMTQTPLILSVTIGQPASISCKSSQSVLYSNGKTYLNWLLQRPGQSPKRLIYLVSKLDSGVPDRFTGSGSGTDFTLKISRVEAEDLGVYYCVQGSHFPYTFGGGTKLEIKAAADYKDHDGDYKDHDIDYKDDDDKAAAHHHHHH
notes: also called X-ME107-B9
As for B1, the binding result (in assay [1]; with streptavidin [2]) was “no binding (tested: supernatant diluted 1:2)” in each case.

B2: W-ME107-27 scFv (scFv, V domains shown)
VH: EVQLLESGGGLVQPGGSLRLSCAASGFTFYGSYMGWVRQAPGKGLEWVSYISGYGGYTYYADSVKGRFTISRDNSKNTLYLQMNSLRAEDTAVYYCARTPYSAYIDYWGQGTLVTVSS
VL: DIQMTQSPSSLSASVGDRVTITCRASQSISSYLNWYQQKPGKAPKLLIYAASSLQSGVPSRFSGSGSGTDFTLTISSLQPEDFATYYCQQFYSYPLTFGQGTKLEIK
notes: Human scFv from SciLifeLib phage libraries
Turning to B2, the binding result in assay [3] was “no binding (tested: supernatant diluted 1:10)”. The binding result with streptavidin [4] was “no binding (tested: 200 nM)”. In addition, in assay [5], binding was characterised by a dissociation constant (Kd) of 2.4 nM, the koff came out at 0.00019 s⁻¹ and the kon was found to be 80000 M⁻¹ s⁻¹. In assay [6], this molecule registered a Kd of 3.1 nM, a koff of 0.00022 s⁻¹ and a kon of 69000 M⁻¹ s⁻¹.

B3: W-ME107-117 scFv (scFv, V domains shown)
VH: EVQLLESGGGLVQPGGSLRLSCAASGFTFSGSYMSWVRQAPGKGLEWVSSIYGSGGYTYYADSVKGRFTISRDNSKNTLYLQMNSLRAEDTAVYYCARYSPFYMDYWGQGTLVTVSS
VL: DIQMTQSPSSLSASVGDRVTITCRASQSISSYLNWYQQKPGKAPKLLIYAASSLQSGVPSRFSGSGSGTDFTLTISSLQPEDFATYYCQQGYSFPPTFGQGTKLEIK
With B3, in assay [6], binding was characterised by a dissociation constant (Kd) of 22 nM, the koff was 0.0033 s⁻¹ and the kon came to 150000 M⁻¹ s⁻¹. Also, in assay [7], the Kd stood at 7.8 nM, the koff stood at 0.00035 s⁻¹ and the kon was 45000 M⁻¹ s⁻¹.

B4: W-ME107-10 scFv (scFv, V domains shown)
VH: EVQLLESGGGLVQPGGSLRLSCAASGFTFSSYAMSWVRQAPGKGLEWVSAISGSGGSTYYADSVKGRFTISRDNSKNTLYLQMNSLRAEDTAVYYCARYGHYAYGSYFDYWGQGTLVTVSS
VL: DIQMTQSPSSLSASVGDRVTITCRASQSISSYLNWYQQKPGKAPKLLIYAASSLQSGVPSRFSGSGSGTDFTLTISSLQPEDFATYYCQQDYYLFTFGQGTKLEIK
notes: as for B2
As to B4, the binding result is listed as “no binding (tested: supernatant diluted 1:10)” in assay [3] and “no binding (tested: 200 nM)” with streptavidin [4]. Also, the figures for the Kd in assay [5] and in assay [6] were 45 nM and 3.4 nM, respectively. Besides, the results for the koff in assay [5] and in assay [6] were 0.0018 s⁻¹ and 0.00017 s⁻¹, respectively. Also, the kon in assay [5] came out at 40000 M⁻¹ s⁻¹; in assay [6], 51000 M⁻¹ s⁻¹.

B5: W-ME107-75 scFv (scFv, V domains shown)
VH: EVQLLESGGGLVQPGGSLRLSCAASGFTFYSYGMSWVRQAPGKGLEWVSYISGGGSYTYYADSVKGRFTISRDNSKNTLYLQMNSLRAEDTAVYYCARGSYSHYGAHYLDYWGQGTLVTVSS
VL: DIQMTQSPSSLSASVGDRVTITCRASQSISSYLNWYQQKPGKAPKLLIYAASSLQSGVPSRFSGSGSGTDFTLTISSLQPEDFATYYCQQALSSLPTFGQGTKLEIK
notes: as for B2
As for B5, the binding result in assay [3] is “no binding (tested: supernatant diluted 1:10)”; with streptavidin [4], “no binding (tested: 200 nM)”. The figures for the Kd in assay [5], in assay [6] and in assay [7] were 80 nM, 36 nM and 5.4 nM, respectively. In addition, the koff was determined as 0.0036 s⁻¹ in assay [5], 0.0079 s⁻¹ in assay [6] and 0.00026 s⁻¹ in assay [7]. Also, the kon in assay [5] came out at 45000 M⁻¹ s⁻¹; in assay [6], 220000 M⁻¹ s⁻¹; in assay [7] it was 48000 M⁻¹ s⁻¹.
